Laboratory results as given in US20140134183A1 (CELL MEDICA SWITZERLAND, published 2014).
Numbering of substitutions follows the chain as printed. Values joined by “and” are separate entries in the source; they are usually repeats but may differ in a detail not shown here. Identical values can stand only once. Like-named read-outs stand apart in the source and are kept apart here. Each block holds one binder with its values, some of them ahead of it.

Key:
[1] = biological target: T1, recombinant human IL-1 beta (human, UniProt P01584 117-269); assay: cell-based or functional assay
[2] = biological target: T1, recombinant human IL-1 beta; assay: cell-based or functional assay; remark: listed apart in the source
mouse IL-1 beta = biological target: T2, mouse IL-1 beta (mouse, UniProt P10749 118-269); assay: ELISA, IL-1 beta coated at 2 mcg/ml, Protein L-HRP detection
T2 construct: Bought protein
T2 sequence (P10749 118-269 limits assumed): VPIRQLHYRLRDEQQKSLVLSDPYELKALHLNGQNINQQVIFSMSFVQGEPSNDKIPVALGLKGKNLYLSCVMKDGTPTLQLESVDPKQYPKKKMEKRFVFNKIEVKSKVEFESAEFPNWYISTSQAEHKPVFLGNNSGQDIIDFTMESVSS
From the text: (§1) Binding to the recombinantly expressed IL-1 beta proteins of the following species was investigated: cynomolgus (Sino Biological Inc., USA, cat. no. 90010-CNAE), rhesus macaque (R&D Systems, USA, cat. no. 1318-RL/CF), swine (Kingfisher Biotech, USA, cat. no. RP0297S-025), canine (Kingfisher Biotech, USA, cat. no. RP0085D-025), guinea pig (Kingfisher Biotech, cat. no. RP0343GP-025), rat (Peprotech, cat. no. 400-01B) and mouse (BioLegend, cat. no. 575102). […] Briefly, proteins were coated at a concentration of 2 mcg/ml over night at 4° C. on Maxisorp 96-well microplates in PBS. […] The ELISA was developed with BM Blue POD substrate (Roche Applied Science) and the absorbance was measured at 450 nm.

canine IL-1 beta = biological target: T3, canine IL-1 beta (canine, UniProt Q28292 115-266, limits assumed); assay: as above
T3 construct: Bought protein
T3 sequence (looked up): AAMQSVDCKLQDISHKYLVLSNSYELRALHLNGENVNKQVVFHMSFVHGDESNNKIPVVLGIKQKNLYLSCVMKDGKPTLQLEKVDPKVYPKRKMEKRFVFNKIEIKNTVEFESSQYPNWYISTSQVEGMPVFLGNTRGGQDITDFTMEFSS
From the text: as §1

swine IL-1 beta = biological target: T4, swine IL-1 beta (swine, UniProt P26889 115-267, limits assumed); assay: as above
T4 construct: Bought protein; also called porcine IL-1 beta
T4 sequence (looked up): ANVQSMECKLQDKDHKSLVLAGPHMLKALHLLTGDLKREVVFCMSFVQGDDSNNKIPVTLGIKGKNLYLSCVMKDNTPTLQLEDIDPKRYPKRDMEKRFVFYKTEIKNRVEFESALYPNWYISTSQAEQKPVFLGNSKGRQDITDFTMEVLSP
From the text: as §1

guinea pig IL-1 beta = biological target: T5, guinea pig IL-1 beta (guinea pig, UniProt Q9WVG1 115-266); assay: as above
T5 construct: Bought protein
T5 sequence: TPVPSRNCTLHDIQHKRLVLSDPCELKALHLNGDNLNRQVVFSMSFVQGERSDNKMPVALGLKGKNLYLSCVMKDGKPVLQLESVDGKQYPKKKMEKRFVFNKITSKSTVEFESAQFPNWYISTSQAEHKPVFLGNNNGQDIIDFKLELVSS
From the text: as §1

IL-36ra = biological target: T6, IL-36ra (human, UniProt Q9UBH0 2-155); assay: ELISA, cytokine coated, carried out essentially as for the species orthologs
T6 construct: Bought protein
T6 sequence (looked up): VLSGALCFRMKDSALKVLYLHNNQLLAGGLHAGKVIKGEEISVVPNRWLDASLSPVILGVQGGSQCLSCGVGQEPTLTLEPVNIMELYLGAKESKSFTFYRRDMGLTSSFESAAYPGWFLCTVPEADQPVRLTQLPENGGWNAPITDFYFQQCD
Experimental: (§2) Briefly, proteins were coated at a concentration of 2 mcg/ml over night at 4° C. on Maxisorp 96-well microplates in PBS. […] The ELISA was developed with BM Blue POD substrate (Roche Applied Science) and the absorbance was measured at 450 nm.
(§3) In the applied ELISA assay the following antibodies served as positive controls: biotin anti-human IL-1ra (BioLegend, cat. no. 509501), biotin anti-human IL-1 alpha (BioLegend, cat. no. 515703), anti-human IL-18 polyclonal antibody (BioVision, cat. no. 5179-100), biotin anti-human IL-33 antibody (Peprotech, cat. no. 500-P261Bt), anti-human TNF alpha scFv DLX105 (Delenex propriety antibody described in WO 2006/131013 A), biotin anti-human IL-6 (R&D systems, DY206, cat. no. 840114), anti-human IL-36ra (R&D systems, cat. no. AF1275). The ELISA was carried out essentially as described above.

rhIL-1ra = biological target: T7, rhIL-1ra (human, UniProt P18510 26-177); assay: as above
T7 construct: Bought protein; also called rhIL-1 receptor antagonist; IL-1 beta receptor antagonist
T7 sequence (P18510 26-177): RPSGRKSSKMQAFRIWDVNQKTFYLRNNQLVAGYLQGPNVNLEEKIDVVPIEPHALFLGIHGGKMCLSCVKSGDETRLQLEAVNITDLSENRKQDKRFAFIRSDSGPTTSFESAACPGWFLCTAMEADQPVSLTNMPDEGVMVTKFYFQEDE
Experimental: as §2, §3

rhTNF alpha = biological target: T8, rhTNF alpha (human, UniProt P01375 77-233); assay: as above
T8 construct: Bought protein
T8 sequence (P01375 77-233): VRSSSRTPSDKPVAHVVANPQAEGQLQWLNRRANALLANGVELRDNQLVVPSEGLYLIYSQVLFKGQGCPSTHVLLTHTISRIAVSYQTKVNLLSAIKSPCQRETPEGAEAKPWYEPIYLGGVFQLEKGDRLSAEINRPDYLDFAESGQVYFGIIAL
Experimental: as §2, §3

rhIL-33 = biological target: T9, rhIL-33 (human, UniProt O95760 112-270); assay: as above
T9 construct: Bought protein
T9 sequence (looked up): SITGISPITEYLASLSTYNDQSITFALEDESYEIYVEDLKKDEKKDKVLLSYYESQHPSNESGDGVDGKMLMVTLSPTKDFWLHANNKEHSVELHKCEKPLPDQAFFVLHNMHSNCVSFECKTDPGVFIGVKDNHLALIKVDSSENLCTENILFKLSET
Experimental: as §2, §3

rhIL-18 = biological target: T10, rhIL-18 (human, UniProt Q14116 37-193); assay: as above
T10 construct: Bought protein
Experimental: as §2, §3

rhIL-6 = biological target: T11, rhIL-6 (human, UniProt P05231 30-212); assay: as above
T11 construct: Bought protein
T11 sequence (P05231 30-212 limits assumed): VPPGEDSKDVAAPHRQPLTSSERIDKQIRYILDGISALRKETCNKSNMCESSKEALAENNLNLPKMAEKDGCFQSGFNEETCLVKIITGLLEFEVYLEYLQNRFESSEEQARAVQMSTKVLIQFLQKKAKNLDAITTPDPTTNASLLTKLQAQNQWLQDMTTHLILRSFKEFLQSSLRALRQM
Experimental: as §2, §3

rhIL-1 alpha = biological target: T12, rhIL-1 alpha (human, UniProt P01583 113-271); assay: as above
T12 construct: Bought protein
T12 sequence (looked up): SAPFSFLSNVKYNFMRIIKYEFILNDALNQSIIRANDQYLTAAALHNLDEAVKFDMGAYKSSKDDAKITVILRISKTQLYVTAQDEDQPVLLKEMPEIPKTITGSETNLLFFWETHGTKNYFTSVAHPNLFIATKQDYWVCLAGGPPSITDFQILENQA
Experimental: as §2, §3

cynomolgus IL-1 beta = biological target: T13, cynomolgus IL-1 beta (cynomolgus, UniProt P79182 117-268); assay: ELISA, IL-1 beta coated at 2 mcg/ml, DLX2323 0.1 to 1.0 mcg/ml, Protein L-HRP detection
T13 construct: Bought protein
T13 sequence (P79182 117-268 limits assumed): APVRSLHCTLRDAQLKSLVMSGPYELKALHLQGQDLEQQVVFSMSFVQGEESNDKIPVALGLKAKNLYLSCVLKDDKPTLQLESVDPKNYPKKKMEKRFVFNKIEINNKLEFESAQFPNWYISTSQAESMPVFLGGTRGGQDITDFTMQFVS
From the text: as §1

rat IL-1 beta = biological target: T14, rat IL-1 beta (rat, UniProt Q63264 117-268); assay: as above
T14 construct: Bought protein
T14 sequence (Q63264 117-268 limits assumed): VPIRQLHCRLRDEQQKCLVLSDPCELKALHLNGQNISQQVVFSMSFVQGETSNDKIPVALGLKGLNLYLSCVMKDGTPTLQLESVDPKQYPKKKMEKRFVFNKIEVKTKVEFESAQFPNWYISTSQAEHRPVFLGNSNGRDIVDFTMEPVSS
From the text: as §1

rhesus macaque IL-1 beta = biological target: T15, rhesus macaque IL-1 beta (rhesus macaque, UniProt P48090 117-269); assay: as above
T15 construct: Bought protein; also called rhesus monkey IL-1 beta
T15 sequence (P48090 117-269 limits assumed): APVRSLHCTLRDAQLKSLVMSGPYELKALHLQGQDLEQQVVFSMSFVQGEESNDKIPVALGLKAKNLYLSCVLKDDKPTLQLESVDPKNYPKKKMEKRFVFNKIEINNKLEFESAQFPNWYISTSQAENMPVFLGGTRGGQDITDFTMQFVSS
From the text: as §1

[3] = biological target: T1, recombinant human IL-1 beta; assay: cell-based or functional assay; remark: listed apart in the source

B3: DLX2323 (scFv)
scFv: EIVMTQSPSTLSASVGDRVIITCQASQSIDNWLSWYQQKPGKAPKLLIYRASTLASGVPSRFSGSGSGAEFTLTISSLQPDDFATYYCQNTGGGVSIAFGQGTKLTVLGGGGGSGGGGSGGGGSGGGGSEVQLVESGGGLVQPGGSLRLSCTASGFSLSSAAMAWVRQAPGKGLEWVGIIYDSASTYYASWAKGRFTISRDTSKNTVYLQMNSLRAEDTAVYYCARERAIFSGDFVLWGQGTLVTVSS
notes: also called scFv DLX2323; parental scFv
IC50 of IL-1 beta-induced IL-6 release from human dermal fibroblasts [1]: 3 pM and 0.002 nM to 0.004 nM (2×) | binding result (mouse IL-1 beta): no binding (tested: 1.0 mcg/ml) | binding result (canine IL-1 beta): no binding (tested: 1.0 mcg/ml) | binding result (swine IL-1 beta): no binding (tested: 1.0 mcg/ml) | binding result (guinea pig IL-1 beta): no binding (tested: 1.0 mcg/ml) | binding result (IL-36ra): no binding | binding result (rhIL-1ra): no binding | binding result (rhTNF alpha): no binding | binding result (rhIL-33): no binding | binding result (rhIL-18): no binding | binding result (rhIL-6): no binding | binding result (rhIL-1 alpha): no binding | binding result (cynomolgus IL-1 beta): binds | binding result (rat IL-1 beta): binds | binding result (rhesus macaque IL-1 beta): binds

B4: DLX2545 (scFv)
scFv: B3 scFv with V177I, V207L, Y223F, A229N, F235M, L243T
IC50 of IL-1 beta-induced IL-6 release from human dermal fibroblasts [3]: 7 pM

B6: DLX2528 (scFv)
scFv: EIVMTQSPSTLSASVGDRVTITCQASQSIGNWLAWYQQKPGKAPKLLIYQASNLASGVPSRFSGSGSGTDFTLTISSLQPDDFATYYCQNAGGATTIAFGQGTKLTVLGGGGGSGGGGSGGGGSGGGGSEVQLVESGGGLVQPGGSLRLSCTASGFSLSSAAMAWVRQAPGKGLEWVGIIYDSASTYYASWAKGRFTISRDTSKNTVYLQMNSLRAEDTAVYYCARERAIFSGDFVLWGQGTLVTVSS
IC50 of IL-1 beta-induced IL-6 release from human dermal fibroblasts [3]: 8 pM

B8: DLX2547 (scFv)
scFv: ADIVMTQSPSTLSASVGDRVTITCQASQSISSYLSWYQQKPGKAPKLLIYRASTLASGVPSRFSGSGSGAEFTLTISSLQPDDFATYYCQNTGGGINIAFGQGTKLEIKRGGGGSGGGGSGGGGSGGGGSEVQLVESGGGLVQPGGSLRLSCTASGFSLSSAAMAWVRQAPGKGLEWVGIIYDSASTYYASWAKGRFTISRDTSKNTVYLQMNSLRAEDTAVYYCARERAIFSGDFVLWGQGTLVTVSS
IC50 of IL-1 beta-induced IL-6 release from human dermal fibroblasts [3]: 30 pM

More lines, now with the values ahead:

IC50 of IL-1 beta-induced IL-6 release from human dermal fibroblasts [1]: 0.6 pM
B1: DLX2681 (scFv)
scFv: EIVMTQSPSTLSASVGDRVIITCRASQSIGNWLSWYQQKPGKAPKLLIYRASNLASGVPSRFSGSGSGAEFTLTISSLQPEDFATYYCQNTGGGINIAFGQGTKLTVLGGGGGSGGGGSGGGGSGGGGSEVQLVESGGGNVQPGGSLRLSCTASGFSLSNSAMAWVRQAPGKGLEWVGIIYDSASTYYASWAKGRFTISRDNSKNTVYLQMNSLRAEDTATYYCARERAIFSGDFALWGQGTLVTVSS

IC50 of IL-1 beta-induced IL-6 release from human dermal fibroblasts [2]: 2 to 3 pM
B2: anti-human IL-1 beta monoclonal IgG antibody MAB201 (antibody, from another filing, V domains shown)
VH: QVTLKESGPGILKPSQTLSLTCSFSGFSLSTSGMGVGWIRQPSGKGLEWLAHIWWDGDESYNPSLKTRLTISKNTSRNQVFLKITTVDTVDTATYFCARNRYDPPWFVDWGQGTLVTVSS
VL: DIQMTQTTSSLSASLGDRVTISCRASQDISNYLSWYQQKPDGTVKLLIYYTSKLHSGVPSRFSGSGSGTDYFLTISNLEQEDIATYFCLQGKMLPWTFGGGTKLEIK

IC50 of IL-1 beta-induced IL-6 release from human dermal fibroblasts [3]: 2 pM
B5: DLX2586 (scFv)
scFv: B3 scFv with A153V, A161Y, A164S, V177I, R200K, Y223F, A229Q, F235M, V236D, L237G

IC50 of IL-1 beta-induced IL-6 release from human dermal fibroblasts [1]: 90 pM
B7: canakinumab IgG (Novartis, ILARIS) (antibody, V domains shown)
VH: QVQLVESGGGVVQPGRSLRLSCAASGFTFSVYGMNWVRQAPGKGLEWVAIIWYDGDNQYYADSVKGRFTISRDNSKNTLYLQMNGLRAEDTAVYYCARDLRTGPFDYWGQGTLVTVSS
VL: EIVLTQSPDFQSVTPKEKVTITCRASQSIGSSLHWYQQKPDQSPKLLIKYASQSFSGVPSRFSGSGSGTDFTLTINSLEAEDAAAYYCHQSSSLPFTFGPGTKVDIKR

IC50 of IL-1 beta-induced IL-6 release from human dermal fibroblasts [1]: 12.5 pM
B9: DLX2693 (scFv)
scFv: B8 scFv with L141N, S161N, A162S, T203N, V222T, V237A
